{"source": "paper PMC6256756", "proteins": {"B1": {"name": "FtsZ (BcFtsZ) (Burkholderia cenocepacia J2315) (protein)", "chain": "MEFEMLETETNGTIIKVVGVGGAGGNAVQHMINRGVQGVDFIVMNTDAQALSRSRASSVIQLGNTGLGAGAKPEMGRAAAEEARERIADALRGAHMVFITAGMGGGTGTGAAPVVAQIAKEMGILTVGVVSKPFEFEGGKRMRVAEAGSQQLEDHVDSLIVVLNDKLFDVMGDDAEMDKCFQCADDVLNNAVAGIAEIINVDGLVNVDFEDVKTVMGEQGKAMMGTATVAGVDRARLAAEQAVASPLLEGVDLSGARGVLVNITSSRSLRLSETREVMNTIKSYAAEDATVIFGAVYDDAMGDALRVTVVATGLGRAAKKQQSAPMTLLRTGTDNQPVSAVSHGYAPAQHVSTADYGALDTPAVWRNSRETAASHVQALQEKGVDTYDIPAFLRKQAD", "notes": "recombinant BcFtsZ (BCAL3457) from pET-28a, N-terminal histidine tag removed with PreScission protease"}}, "substrate": "Nc1nc2c(ncn2[C@@H]2O[C@H](COP(=O)(O)OP(=O)(O)OP(=O)(O)O)[C@@H](O)[C@H]2O)c(=O)[nH]1", "assay": "steady-state kinetics, PK/LDH coupled GTPase assay (Km)", "assay_type": "biochemical, Burkholderia cenocepacia", "conditions": "Mg2+ GTP binding site", "data": [{"protein": "B1", "values": [{"measurement": "Km", "result": "6.4 ± 0.8", "unit": "µM"}]}]}
